{"source": "paper PMC5887453", "about": "(Nucleic Acids Research, 2018)", "binders": {"B1": {"name": "Pyrococcus horikoshii ribosomal stalk protein P1 (natural protein, UniProt O57705 1-108, looked up)", "chain": "MEYVYAALLLHSVGKEINEENLKAVLQAAGVEPEEARIKALVAALEGVNIDEVIEKAAMPVAVAAAPAAAPAEAGGEEKKEEEKKEEEEKEEEVSEEEALAGLSALFG", "modifications": "in the SPR only: biotin on amino groups via a PEG linker (EZ-Link NHS-PEG4-Biotin)"}}, "key": {"PhoEF-2 F205S": {"target": "T1, PhoEF-2 F205S (Pyrococcus horikoshii, UniProt O59521 1-732, F205S)", "T1 sequence (looked up)": "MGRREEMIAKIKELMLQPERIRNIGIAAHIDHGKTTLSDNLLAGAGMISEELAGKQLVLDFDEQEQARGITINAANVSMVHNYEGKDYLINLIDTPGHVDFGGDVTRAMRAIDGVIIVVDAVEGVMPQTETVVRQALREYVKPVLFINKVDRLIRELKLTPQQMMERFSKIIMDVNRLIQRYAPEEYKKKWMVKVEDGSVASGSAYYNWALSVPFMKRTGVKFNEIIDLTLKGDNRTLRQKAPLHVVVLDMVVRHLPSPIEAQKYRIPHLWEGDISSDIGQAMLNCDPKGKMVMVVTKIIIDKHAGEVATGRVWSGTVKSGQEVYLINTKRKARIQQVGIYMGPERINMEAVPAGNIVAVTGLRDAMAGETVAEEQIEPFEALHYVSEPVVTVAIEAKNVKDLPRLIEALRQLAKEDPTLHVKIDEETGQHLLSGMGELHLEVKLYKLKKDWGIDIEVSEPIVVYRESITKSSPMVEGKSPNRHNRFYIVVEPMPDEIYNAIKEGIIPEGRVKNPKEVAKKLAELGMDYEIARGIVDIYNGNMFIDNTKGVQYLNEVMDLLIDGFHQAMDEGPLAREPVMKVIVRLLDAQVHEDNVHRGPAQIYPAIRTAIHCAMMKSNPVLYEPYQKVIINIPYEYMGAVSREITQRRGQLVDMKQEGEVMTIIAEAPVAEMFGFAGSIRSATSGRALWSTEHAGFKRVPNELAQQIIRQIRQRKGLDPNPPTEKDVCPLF", "assay": "native gel or EMSA"}, "PhoEF-2 M168S": {"target": "T2, PhoEF-2 M168S (Pyrococcus horikoshii, UniProt O59521 1-732, M168S)", "T2 sequence (looked up)": "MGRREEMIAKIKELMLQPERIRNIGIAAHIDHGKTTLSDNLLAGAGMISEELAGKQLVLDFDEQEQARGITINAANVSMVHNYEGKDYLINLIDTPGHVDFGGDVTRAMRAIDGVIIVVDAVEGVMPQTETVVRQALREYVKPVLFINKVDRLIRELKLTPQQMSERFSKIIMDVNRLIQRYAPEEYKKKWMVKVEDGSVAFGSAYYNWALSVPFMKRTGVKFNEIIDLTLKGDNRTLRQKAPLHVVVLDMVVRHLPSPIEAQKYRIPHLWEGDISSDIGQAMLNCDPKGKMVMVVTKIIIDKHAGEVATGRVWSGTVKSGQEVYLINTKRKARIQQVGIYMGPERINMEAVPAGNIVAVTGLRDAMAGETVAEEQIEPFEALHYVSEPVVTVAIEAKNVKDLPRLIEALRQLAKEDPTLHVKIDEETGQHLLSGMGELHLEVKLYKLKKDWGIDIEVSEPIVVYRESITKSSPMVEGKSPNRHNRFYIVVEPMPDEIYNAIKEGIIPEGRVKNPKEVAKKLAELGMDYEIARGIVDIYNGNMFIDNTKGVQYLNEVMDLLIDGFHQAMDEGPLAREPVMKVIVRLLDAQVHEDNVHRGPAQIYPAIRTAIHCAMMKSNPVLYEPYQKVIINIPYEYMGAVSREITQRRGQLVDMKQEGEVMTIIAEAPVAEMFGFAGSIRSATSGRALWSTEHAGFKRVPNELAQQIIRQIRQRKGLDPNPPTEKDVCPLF", "assay": "native gel or EMSA"}}, "data": [{"binder": "B1", "values": [{"measurement": "binding result", "setting": "PhoEF-2 F205S", "value": "binds"}, {"measurement": "binding result", "setting": "PhoEF-2 M168S", "value": "binds"}]}]}
